# Reference: article PMC6953194
# B1: recombinant human FcγRIIa ectodomain, polymorphic variant R131 (receptor)
# chain: QAAAPPKAVLKLEPPWINVLQEDSVTLTCQGARSPESDSIQWFHNGNLIPTHTQPSYRFKANNNDSGEYTCQTGQTSLSDPVHLTVLSEWLVLQTPHLEFQEGETIMLRCHSWKDKPLVKVTFFQNGKSQKFSRLDPTFSIPQANHSHSGDYHCTGNIGYTLFSSKPVTITVQVPSMGSSSPMG
# modifications: not checked
# Columns and labels:
# Experiment in all cases: SPR
# [1] = molecular target: VRC01 antibody derived from HEK cells (VRC01HEK) (human)
# [2] = molecular target: VRC01 expressed transiently in WT N. benthamiana (VRC01WT) (human)
# [3] = molecular target: VRC01 expressed in the ΔXT/FT N. benthamiana plant line (VRC01ΔXF) (human)
# [4] = molecular target: VRC01 co‐expressed with human β1,4‐galactosyltransferase in the ΔXT/FT plant line (VRC01Gal) (human)
# VRC01 co‐expressed with human β1,4‐galactosyltransferase in the ΔXT/FT plant line (VRC01Gal) (human), sequence (light, as listed by the source, chain 2 of 2, other chains not shown): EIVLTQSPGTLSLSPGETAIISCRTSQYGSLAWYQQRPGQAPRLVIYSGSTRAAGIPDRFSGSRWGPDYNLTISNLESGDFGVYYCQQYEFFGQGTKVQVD
# VRC01 expressed transiently in WT N. benthamiana (VRC01WT) (human), sequence (light, as listed by the source, chain 2 of 2, other chains not shown): as above
# VRC01 antibody derived from HEK cells (VRC01HEK) (human), sequence (light, as listed by the source, chain 2 of 2, other chains not shown): as above
# VRC01 expressed in the ΔXT/FT N. benthamiana plant line (VRC01ΔXF) (human), sequence (light, as listed by the source, chain 2 of 2, other chains not shown): as above
binder,measurement,setting,value
B1,Kd,[1],937 nM
same,Kd,[2],> 7 µM
same,Kd,[3],780 nM
same,Kd,[4],1500 nM
